Assay results reported in patent publication US20230287598A1 (TAURUS BIOSCIENCES, published 2023).
Where two headings read alike, the source gives them in different places.

T1: CXCR1 (UniProt P25024 1-350, limits assumed)
T1 sequence (looked up): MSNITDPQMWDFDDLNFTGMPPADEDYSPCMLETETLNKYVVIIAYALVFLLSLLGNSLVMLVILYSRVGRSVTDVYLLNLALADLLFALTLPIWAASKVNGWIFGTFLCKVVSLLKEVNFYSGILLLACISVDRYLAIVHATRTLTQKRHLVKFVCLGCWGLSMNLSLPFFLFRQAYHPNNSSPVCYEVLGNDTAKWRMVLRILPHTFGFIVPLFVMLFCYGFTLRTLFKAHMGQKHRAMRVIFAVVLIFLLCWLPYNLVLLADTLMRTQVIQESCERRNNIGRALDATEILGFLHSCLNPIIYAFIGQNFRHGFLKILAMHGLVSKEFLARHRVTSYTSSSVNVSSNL

B1: VH4-34+CDR3-IL8_CDR1-Cow_CDR2-Cow / VL1-51 S2A, T5N, P8S, A12G, A13S, P14L, K46R, L47T, D51G, N52D, N53T IgG (antibody)
VH: QVQLQQWGAGLLKPSETLSLTCTASGFSLSDKAVGWIRQPPGKGLEWLGSIDTGGNTGYNPSLKSRVTISVDTSKNQFSLKLSSVTAADTAVYYCTSVHQETKKYQSPRSAKELRCQCIKTYSKPFHPKFIKELRVIESGPHCANTEIIVKLSDGRELCLDPKENWVQRVVEKFLKRAENSGSGSYTYNYEWHVDVWGQGLLVTVSSAS
light: QAVLNQPSSVSGSLGQKVTISCSGSSSNIGNNYVSWYQQLPGTAPRTLIYGDTKRPSGIPDRFSGSKSGTSATLGITGLQTGDEADYYCASAEDSSSNAVFGSGTTLTVLGQPKAAPSVTLFPPSSEELQANKATLVCLISDFYPGAVTVAWKADSSPVKAGVETTTPSKQSNNKYAASSYLSLTPEQWKSHRSYSCQVTHEGSTVEKTVAPTECS
notes: also called BID 39; VH4-34 MutD IL-8 CDR1cow CDR2cow
B2: VH4-34+CDR3-IL8_CDR2 Cow / VL1-51 S2A, T5N, P8S, A12G, A13S, P14L, D51G, N52D, N53T IgG (antibody)
VH: QVQLQQWGAGLLKPSETLSLTCAVYGGSFSGYYWSWIRQPPGKGLEWLGSIDTGGNTGYNPSLKSRVTISVDTSKNQFSLKLSSVTAADTAVYYCTSVHQETKKYQSPRSAKELRCQCIKTYSKPFHPKFIKELRVIESGPHCANTEIIVKLSDGRELCLDPKENWVQRVVEKFLKRAENSGSGSYTYNYEWHVDVWGQGLLVTVSSAS
light: QAVLNQPSSVSGSLGQKVTISCSGSSSNIGNNYVSWYQQLPGTAPKLLIYGDTKRPSGIPDRFSGSKSGTSATLGITGLQTGDEADYYCASAEDSSSNAVFGSGTTLTVLGQPKAAPSVTLFPPSSEELQANKATLVCLISDFYPGAVTVAWKADSSPVKAGVETTTPSKQSNNKYAASSYLSLTPEQWKSHRSYSCQVTHEGSTVEKTVAPTECS
notes: nt HC 433, LC 444
B3: VH4-34+CDR3-IL8_CDR2 Cow / VL1-51 S2A, T5N, P8S, A12G, A13S, P14L, K46R, L47T, D51G, N52D, N53T IgG (antibody)
VH: QVQLQQWGAGLLKPSETLSLTCAVYGGSFSGYYWSWIRQPPGKGLEWLGSIDTGGNTGYNPSLKSRVTISVDTSKNQFSLKLSSVTAADTAVYYCTSVHQETKKYQSPRSAKELRCQCIKTYSKPFHPKFIKELRVIESGPHCANTEIIVKLSDGRELCLDPKENWVQRVVEKFLKRAENSGSGSYTYNYEWHVDVWGQGLLVTVSSAS
light: QAVLNQPSSVSGSLGQKVTISCSGSSSNIGNNYVSWYQQLPGTAPRTLIYGDTKRPSGIPDRFSGSKSGTSATLGITGLQTGDEADYYCASAEDSSSNAVFGSGTTLTVLGQPKAAPSVTLFPPSSEELQANKATLVCLISDFYPGAVTVAWKADSSPVKAGVETTTPSKQSNNKYAASSYLSLTPEQWKSHRSYSCQVTHEGSTVEKTVAPTECS
notes: nt HC 433, LC 486
B4: VH4-34+CDR3-IL8_CDR2 E50S / VL1-51 S2A, T5N, P8S, A12G, A13S, P14L IgG (antibody)
VH: QVQLQQWGAGLLKPSETLSLTCAVYGGSFSGYYWSWIRQPPGKGLEWIGSINHSGSTNYNPSLKSRVTISVDTSKNQFSLKLSSVTAADTAVYYCTSVHQETKKYQSPRSAKELRCQCIKTYSKPFHPKFIKELRVIESGPHCANTEIIVKLSDGRELCLDPKENWVQRVVEKFLKRAENSGSGSYTYNYEWHVDVWGQGLLVTVSSAS
light: QAVLNQPSSVSGSLGQKVTISCSGSSSNIGNNYVSWYQQLPGTAPKLLIYDNNKRPSGIPDRFSGSKSGTSATLGITGLQTGDEADYYCASAEDSSSNAVFGSGTTLTVLGQPKAAPSVTLFPPSSEELQANKATLVCLISDFYPGAVTVAWKADSSPVKAGVETTTPSKQSNNKYAASSYLSLTPEQWKSHRSYSCQVTHEGSTVEKTVAPTECS
B5: VH4-34+CDR3-IL8 / VL1-51 S2A, T5N, P8S, A12G, A13S, P14L, K46R, L47T, D51G, N52D, N53T IgG (antibody)
VH: QVQLQQWGAGLLKPSETLSLTCAVYGGSFSGYYWSWIRQPPGKGLEWIGEINHSGSTNYNPSLKSRVTISVDTSKNQFSLKLSSVTAADTAVYYCTSVHQETKKYQSPRSAKELRCQCIKTYSKPFHPKFIKELRVIESGPHCANTEIIVKLSDGRELCLDPKENWVQRVVEKFLKRAENSGSGSYTYNYEWHVDVWGQGLLVTVSSAS
light: QAVLNQPSSVSGSLGQKVTISCSGSSSNIGNNYVSWYQQLPGTAPRTLIYGDTKRPSGIPDRFSGSKSGTSATLGITGLQTGDEADYYCASAEDSSSNAVFGSGTTLTVLGQPKAAPSVTLFPPSSEELQANKATLVCLISDFYPGAVTVAWKADSSPVKAGVETTTPSKQSNNKYAASSYLSLTPEQWKSHRSYSCQVTHEGSTVEKTVAPTECS
notes: nt HC 430, LC 486
B6: VH4-34+CDR3-IL8_CDR1-G31DY32K_CDR2-E50S / VL1-51 S2A, T5N, P8S, A12G, A13S, P14L, K46R, L47T, D51G, N52D, N53T IgG (antibody)
VH: QVQLQQWGAGLLKPSETLSLTCAVYGGSFSDKYWSWIRQPPGKGLEWIGSINHSGSTNYNPSLKSRVTISVDTSKNQFSLKLSSVTAADTAVYYCTSVHQETKKYQSPRSAKELRCQCIKTYSKPFHPKFIKELRVIESGPHCANTEIIVKLSDGRELCLDPKENWVQRVVEKFLKRAENSGSGSYTYNYEWHVDVWGQGLLVTVSSAS
light: QAVLNQPSSVSGSLGQKVTISCSGSSSNIGNNYVSWYQQLPGTAPRTLIYGDTKRPSGIPDRFSGSKSGTSATLGITGLQTGDEADYYCASAEDSSSNAVFGSGTTLTVLGQPKAAPSVTLFPPSSEELQANKATLVCLISDFYPGAVTVAWKADSSPVKAGVETTTPSKQSNNKYAASSYLSLTPEQWKSHRSYSCQVTHEGSTVEKTVAPTECS
notes: also called BID 37; VH4-34 MutC IL-8 31D32K50S
B7: VH4-34+CDR3-IL8_CDR1-G31DY32K_CDR2-E50S_Q5RQ6E / VL1-51 S2A, T5N, P8S, A12G, A13S, P14L, K46R, L47T, D51G, N52D, N53T IgG (antibody)
VH: QVQLREWGAGLLKPSETLSLTCAVYGGSFSDKYWSWIRQPPGKGLEWIGSINHSGSTNYNPSLKSRVTISVDTSKNQFSLKLSSVTAADTAVYYCTSVHQETKKYQSPRSAKELRCQCIKTYSKPFHPKFIKELRVIESGPHCANTEIIVKLSDGRELCLDPKENWVQRVVEKFLKRAENSGSGSYTYNYEWHVDVWGQGLLVTVSS
light: QAVLNQPSSVSGSLGQKVTISCSGSSSNIGNNYVSWYQQLPGTAPRTLIYGDTKRPSGIPDRFSGSKSGTSATLGITGLQTGDEADYYCASAEDSSSNAVFGSGTTLTVLGQPKAAPSVTLFPPSSEELQANKATLVCLISDFYPGAVTVAWKADSSPVKAGVETTTPSKQSNNKYAASSYLSLTPEQWKSHRSYSCQVTHEGSTVEKTVAPTECS
notes: also called BID 38; VH4-34 MutE IL-8 5R6E31D32K50S
B8: VH4-34+CDR3-IL8_CDR2 E50S / VL1-51 S2A, T5N, P8S, A12G, A13S, P14L, K46R, L47T, D51G, N52D, N53T IgG (antibody)
VH: QVQLQQWGAGLLKPSETLSLTCAVYGGSFSGYYWSWIRQPPGKGLEWIGSINHSGSTNYNPSLKSRVTISVDTSKNQFSLKLSSVTAADTAVYYCTSVHQETKKYQSPRSAKELRCQCIKTYSKPFHPKFIKELRVIESGPHCANTEIIVKLSDGRELCLDPKENWVQRVVEKFLKRAENSGSGSYTYNYEWHVDVWGQGLLVTVSSAS
light: QAVLNQPSSVSGSLGQKVTISCSGSSSNIGNNYVSWYQQLPGTAPRTLIYGDTKRPSGIPDRFSGSKSGTSATLGITGLQTGDEADYYCASAEDSSSNAVFGSGTTLTVLGQPKAAPSVTLFPPSSEELQANKATLVCLISDFYPGAVTVAWKADSSPVKAGVETTTPSKQSNNKYAASSYLSLTPEQWKSHRSYSCQVTHEGSTVEKTVAPTECS

Assays:
CXCR1 [1] = molecular target: T1, CXCR1; test: cell-based or functional assay
CXCR1 [2] = molecular target: T1, CXCR1; test: flow cytometry, supernatant at 5 nM IgG
Experimental: (§1) Briefly, a cell line expressing functionally validated CXCR1 derived from U2OS cells was obtained from DiscoveRx and cultured per manufacturer’s instructions (Cat# 93-0226C3, DiscoveRx Corporation, Freemont, CA). The parental cell line U2OS was obtained from ATCC and cultured under the same conditions as the CXCR1 cells. Cell culture supernatants were then tested for binding to cells by flow cytometry. The adherent U2OS or CXCR1-U2OS cells were dissociated with Accutase (Innovative Cell Technologies, Inc., San Diego, CA), neutralized with an equal volume of media containing 10% serum, centrifuged at 1000 g, and resuspended in PBS with 2%BSA. Next, cells were dispensed into microtiter plates to achieve between 30,000 to 300,000 cells per well, centrifuged again, and resuspended in cell culture supernatant containing expressed IgG, or a dilution of IgG-containing cell culture supernatant. A fluorescent-conjugated anti-Human Fc antibody was used to detect binding of the expressed antibody to cells.
The ability of IL-8 within CDR3 in these antibodies to specifically bind CXCR1 receptor was evaluated by comparing the median fluorescence of cells expressing CXCR1 as compared to the median fluorescence of parental cells.

CXCR1 [3] = molecular target: T1, CXCR1; test: flow cytometry, supernatant at 5 nM IgG; remark: listed apart in the source
Experimental: as §1
The ability of IL-8 within CDR3 in these antibodies to specifically bind CXCR1 receptor was evaluated by comparing the median fluorescence of cells expressing CXCR1 as compared to the median fluorescence of parental cells. The ratio of these median AFU was calculated as previously in Table 19.

Row | Binder | CXCR1 activation, luminescence at 0.4 nM IL-8 domains (CXCR1 [1]) | CXCR1 activation, luminescence at 1.6 nM IL-8 domains (CXCR1 [1]) | CXCR1 activation, luminescence at 6.25 nM IL-8 domains (CXCR1 [1]) | CXCR1 activation, luminescence at 25 nM IL-8 domains (CXCR1 [1]) | CXCR1 activation, luminescence at 100 nM IL-8 domains (CXCR1 [1]) | Specific Binding (CXCR1-Cell median AFU / Parental Cell median AFU) (CXCR1 [2]) | Specific Binding (CXCR1-Cell median AFU / Parental Cell median AFU) (CXCR1 [3])
1 | B1 | 6310 | 7400 | 10200 | 15400 | 21600 | 13 | –
2 | B2 | – | – | – | – | – | 4 | –
3 | B3 | – | – | – | – | – | 3 | –
4 | B4 | – | – | – | – | – | 4 | –
5 | B5 | – | – | – | – | – | 12 | –
6 | B6 | 5420 | 5710 | 7160 | 11200 | 15500 | 18 | –
7 | B7 | 6190 | 8160 | 13500 | 21000 | 25900 | – | 4
8 | B8 | – | – | – | – | – | 5 | –
